One assay addresses FcγRIIa_H131 (human) (UniProt P12318). Description: BLI; ForteBio Octet QKe; FcγRIIa_R131 or FcγRIIa_H131 immobilised on NTA sensor; antibody 200 nM to 12.5 nM in solution; 60 s binding and 60 s dissociation. (In general: BLI is a label-free optical method that tracks binding on a fibre tip over time.)
The target in a further assay is FcγRIIa_R131 (human). Described as above.
A further assay addresses FcγRIa (human) (UniProt P12314). Description: BLI; ForteBio Octet QKe; FcγRIa immobilised on HIS1K sensor; antibody 50 nM to 3.12 nM in solution; 120 s binding and 120 s dissociation.
A further assay addresses FcγRIIIa_V158 (human). As to the kind of experiment: BLI; ForteBio Octet QKe; FcγRIIIa_F158 or FcγRIIIa_V158 (5 μg/mL) immobilised on HIS1K sensor; antibody 500 nM to 31.25 nM in solution; 60 s binding and 60 s dissociation.
The next assay addresses FcγRIIIa_F158 (human) (UniProt P08637). Described as above.
Assay [1] concerns the target T1, human PD-1 extracellular domain fused to human IgG Fc domain (PD-1-hFc) (Homo sapiens, UniProt Q15116).
T1 construct: human programmed cell death protein 1 (PD-1), extracellular domain
As to the kind of experiment: SPR; Biacore T200; PD-1-hFc immobilised on CM5 chip; antibody 50 nM to 1.56 nM flowed; 180 s binding, 420 s dissociation. The note with it: both partners purified. In general terms: SPR reads the build-up and loss of mass on a sensor chip optically.

Sequence of FcγRIIIa_F158 (human) (P08637 17-254): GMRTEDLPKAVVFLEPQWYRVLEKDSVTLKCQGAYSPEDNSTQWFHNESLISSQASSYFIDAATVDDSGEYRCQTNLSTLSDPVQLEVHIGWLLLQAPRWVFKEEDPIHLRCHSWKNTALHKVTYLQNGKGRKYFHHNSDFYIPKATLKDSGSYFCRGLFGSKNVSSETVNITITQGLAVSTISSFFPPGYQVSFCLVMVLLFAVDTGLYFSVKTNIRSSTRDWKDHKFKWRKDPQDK
Sequence of FcγRIIa_H131 (human) (P12318 34-317): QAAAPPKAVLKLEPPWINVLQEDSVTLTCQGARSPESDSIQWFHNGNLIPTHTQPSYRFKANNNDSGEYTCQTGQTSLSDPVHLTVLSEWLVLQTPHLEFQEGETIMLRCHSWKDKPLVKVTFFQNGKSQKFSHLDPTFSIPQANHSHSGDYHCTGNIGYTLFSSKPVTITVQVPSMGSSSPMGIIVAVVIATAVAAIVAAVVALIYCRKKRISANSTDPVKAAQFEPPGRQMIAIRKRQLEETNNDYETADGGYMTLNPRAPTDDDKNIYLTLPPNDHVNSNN
T1 sequence (Q15116 25-170): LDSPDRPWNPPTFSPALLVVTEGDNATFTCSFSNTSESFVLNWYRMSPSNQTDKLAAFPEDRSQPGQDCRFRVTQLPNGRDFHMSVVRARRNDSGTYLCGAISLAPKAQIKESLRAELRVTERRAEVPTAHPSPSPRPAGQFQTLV
Sequence of FcγRIa (human) (P12314 16-374): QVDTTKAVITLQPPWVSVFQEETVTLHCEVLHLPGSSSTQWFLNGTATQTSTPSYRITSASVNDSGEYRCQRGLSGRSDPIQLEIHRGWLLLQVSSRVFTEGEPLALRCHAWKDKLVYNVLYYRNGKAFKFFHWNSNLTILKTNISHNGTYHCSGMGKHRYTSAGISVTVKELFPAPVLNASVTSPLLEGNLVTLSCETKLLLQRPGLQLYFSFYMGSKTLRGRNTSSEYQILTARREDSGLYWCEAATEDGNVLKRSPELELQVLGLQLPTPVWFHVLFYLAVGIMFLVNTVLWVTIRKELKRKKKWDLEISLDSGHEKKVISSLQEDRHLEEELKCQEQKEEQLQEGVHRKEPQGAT

B1: AK105 (hG4), an IgG4 backbone version of penpulimab (antibody, V domains shown)
VH: EVQLVESGGGLVQPGGSLRLSCAASGFAFSSYDMSWVRQAPGKGLDWVATISGGGRYTYYPDSVKGRFTISRDNSKNNLYLQMNSLRAEDTALYYCANRYGEAWFAYWGQGTLVTVSS
VL: DIQMTQSPSSMSASVGDRVTFTCRASQDINTYLSWFQQKPGKSPKTLIYRANRLVSGVPSRFSGSGSGQDYTLTISSLQPEDMATYYCLQYDEFPLTFGAGTKLELK
As usually defined, the Kd is the free concentration of one partner at which half of the binding sites on the other are occupied at equilibrium, for simple one-to-one binding. Higher therefore signals a looser complex. By koff is commonly meant the first-order rate constant of dissociation. As a reminder, the kon is the second-order rate constant of association. Read a high kon as faster complex formation. Consider B1, for which the Kd in the assay with FcγRIIa_H131 (human) worked out at 50.7 nM; in the assay with FcγRIIa_R131 (human), 31.3 nM; with FcγRIa (human), 8.25 nM; with FcγRIIIa_V158 (human) it was 23500 nM. In addition, the off-rate constant (koff) in the assay with FcγRIIa_H131 (human) was 0.013 s⁻¹; in the assay with FcγRIIa_R131 (human) it was 0.011 s⁻¹; with FcγRIa (human), 0.00478 s⁻¹; in the assay with FcγRIIIa_V158 (human) it was 0.0837 s⁻¹. Besides, the kon was 257000 M⁻¹ s⁻¹ with FcγRIIa_H131 (human), 350000 M⁻¹ s⁻¹ in the assay with FcγRIIa_R131 (human), 579000 M⁻¹ s⁻¹ with FcγRIa (human) and 3560 M⁻¹ s⁻¹ in the assay with FcγRIIIa_V158 (human).

B2: AK105 (hG1WT), a version of penpulimab with wildtype IgG1 backbone (antibody, V domains shown)
VH: EVQLVESGGGLVQPGGSLRLSCAASGFAFSSYDMSWVRQAPGKGLDWVATISGGGRYTYYPDSVKGRFTISRDNSKNNLYLQMNSLRAEDTALYYCANRYGEAWFAYWGQGTLVTVSS
VL: DIQMTQSPSSMSASVGDRVTFTCRASQDINTYLSWFQQKPGKSPKTLIYRANRLVSGVPSRFSGSGSGQDYTLTISSLQPEDMATYYCLQYDEFPLTFGAGTKLELK
Turning to B2, the dissociation constant Kd with FcγRIIa_H131 (human) is 57.4 nM; in the assay with FcγRIIa_R131 (human), 34.6 nM; in the assay with FcγRIa (human), 3.35 nM; with FcγRIIIa_V158 (human), 197 nM; with FcγRIIIa_F158 (human), 238 nM. For the same molecule, the koff came out at 0.0267 s⁻¹ with FcγRIIa_H131 (human); 0.0228 s⁻¹ with FcγRIIa_R131 (human); 0.00213 s⁻¹ with FcγRIa (human); 0.0329 s⁻¹ in the assay with FcγRIIIa_V158 (human); 0.04 s⁻¹ with FcγRIIIa_F158 (human). For the same molecule, the kon was 465000 M⁻¹ s⁻¹ with FcγRIIa_H131 (human); 660000 M⁻¹ s⁻¹ with FcγRIIa_R131 (human); 636000 M⁻¹ s⁻¹ with FcγRIa (human); 167000 M⁻¹ s⁻¹ with FcγRIIIa_V158 (human); 168000 M⁻¹ s⁻¹ in the assay with FcγRIIIa_F158 (human).

B3: Penpulimab (antibody, V domains shown)
VH: EVQLVESGGGLVQPGGSLRLSCAASGFAFSSYDMSWVRQAPGKGLDWVATISGGGRYTYYPDSVKGRFTISRDNSKNNLYLQMNSLRAEDTALYYCANRYGEAWFAYWGQGTLVTVSS
VL: DIQMTQSPSSMSASVGDRVTFTCRASQDINTYLSWFQQKPGKSPKTLIYRANRLVSGVPSRFSGSGSGQDYTLTISSLQPEDMATYYCLQYDEFPLTFGAGTKLELK
notes: heavy chain variable domain of penpulimab; light chain of penpulimab; Human IgG1 anti-PD-1 antibody with Fc mutations; probably a Fab; also called AK105
As for B3, in the assay with FcγRIIa_R131 (human), the Kd stood at 232 nM, the off-rate constant (koff) stood at 0.0938 s⁻¹ and the kon came to 404000 M⁻¹ s⁻¹. In assay [1], the affinity, expressed as Kd, was 0.588 nM; the koff was 9.51e-05 s⁻¹; the kon is 162000 M⁻¹ s⁻¹.
